Test results: paper PMC3026782, “The Cytoskeletal Protein Ndel1 Regulates Dynamin 2 GTPase Activity” (PLoS ONE, 2011)

What was measured:
[1] = molecular target: T1, GST-Dyn2 F5 (GTPase+middle+PH+GED domains); experiment: cell-based or functional assay
T1 chain: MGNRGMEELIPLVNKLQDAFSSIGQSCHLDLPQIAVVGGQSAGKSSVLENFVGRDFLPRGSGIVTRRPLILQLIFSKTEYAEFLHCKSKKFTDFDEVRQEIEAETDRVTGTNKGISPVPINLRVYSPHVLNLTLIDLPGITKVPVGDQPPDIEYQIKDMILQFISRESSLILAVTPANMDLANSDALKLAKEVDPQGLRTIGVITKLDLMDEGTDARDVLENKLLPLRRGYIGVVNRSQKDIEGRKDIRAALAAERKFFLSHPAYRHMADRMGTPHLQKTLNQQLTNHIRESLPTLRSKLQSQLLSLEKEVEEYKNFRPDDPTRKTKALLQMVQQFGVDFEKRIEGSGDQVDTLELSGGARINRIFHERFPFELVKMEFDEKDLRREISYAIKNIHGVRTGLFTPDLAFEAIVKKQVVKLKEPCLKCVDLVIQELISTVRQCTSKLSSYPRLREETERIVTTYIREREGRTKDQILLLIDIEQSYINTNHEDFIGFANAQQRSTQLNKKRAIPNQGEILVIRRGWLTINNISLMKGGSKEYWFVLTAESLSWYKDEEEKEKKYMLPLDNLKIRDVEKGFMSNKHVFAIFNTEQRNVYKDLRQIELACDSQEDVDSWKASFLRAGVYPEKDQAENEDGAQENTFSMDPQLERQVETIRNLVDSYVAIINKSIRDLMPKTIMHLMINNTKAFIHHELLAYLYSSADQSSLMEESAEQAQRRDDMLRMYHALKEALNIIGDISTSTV

[2] = molecular target: T2, GST-fused Dyn2 (UniProt P50570 1-870); experiment: cell-based or functional assay
T2 sequence (looked up): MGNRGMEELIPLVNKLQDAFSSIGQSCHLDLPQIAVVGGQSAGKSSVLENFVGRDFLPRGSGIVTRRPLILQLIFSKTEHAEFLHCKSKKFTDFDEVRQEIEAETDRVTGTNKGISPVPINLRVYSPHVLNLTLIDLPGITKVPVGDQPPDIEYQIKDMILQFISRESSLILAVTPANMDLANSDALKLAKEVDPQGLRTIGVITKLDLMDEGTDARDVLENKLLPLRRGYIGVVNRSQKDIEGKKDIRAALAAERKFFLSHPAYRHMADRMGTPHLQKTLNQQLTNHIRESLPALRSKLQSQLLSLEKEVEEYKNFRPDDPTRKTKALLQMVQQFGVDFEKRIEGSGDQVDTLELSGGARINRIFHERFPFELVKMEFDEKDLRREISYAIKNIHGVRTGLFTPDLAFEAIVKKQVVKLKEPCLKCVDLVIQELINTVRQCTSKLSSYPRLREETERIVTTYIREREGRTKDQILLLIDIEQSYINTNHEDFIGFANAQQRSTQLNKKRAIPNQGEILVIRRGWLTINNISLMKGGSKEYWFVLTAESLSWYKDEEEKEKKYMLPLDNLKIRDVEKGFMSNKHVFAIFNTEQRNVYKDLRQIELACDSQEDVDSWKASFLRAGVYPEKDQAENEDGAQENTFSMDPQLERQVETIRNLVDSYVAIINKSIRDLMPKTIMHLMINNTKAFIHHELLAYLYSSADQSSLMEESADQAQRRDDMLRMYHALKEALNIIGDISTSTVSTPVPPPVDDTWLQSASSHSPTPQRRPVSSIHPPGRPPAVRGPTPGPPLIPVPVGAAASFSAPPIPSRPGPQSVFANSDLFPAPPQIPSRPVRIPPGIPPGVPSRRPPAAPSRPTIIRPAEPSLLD

B1: His-tagged Ndel1 (natural protein, UniProt Q9GZM8 1-345, looked up)
chain: MDGEDIPDFSSLKEETAYWKELSLKYKQSFQEARDELVEFQEGSRELEAELEAQLVQAEQRNRDLQADNQRLKYEVEALKEKLEHQYAQSYKQVSVLEDDLSQTRAIKEQLHKYVRELEQANDDLERAKRATIVSLEDFEQRLNQAIERNAFLESELDEKESLLVSVQRLKDEARDLRQELAVRERQQEVTRKSAPSSPTLDCEKMDSAVQASLSLPATPVGKGTENTFPSPKAIPNGFGTSPLTPSARISALNIVGDLLRKVGALESKLAACRNFAKDQASRKSYISGNVNCGVLNGNGTKFSRSGHTSFFDKGAVNGFDPAPPPPGLGSSRPSSAPGMLPLSV
non-radioactive (ELIPA) GTPase assay of F5 with against without Ndel1 [1]: ~1.3 fold
radioactive GTPase assay: hydrolysis of GTP into GDP by Dyn2 oligomers (low salt) with against without Ndel1, over 60 minutes [2]: ~2 fold
